Residue numbers refer to the chain shown, from its start. In names and notes the source's numbering stands. Blank lines part the entries; values can stand above or below the binder they belong to.
Key:
Settings in all cases: both partners purified
[1] = molecular target: T1, human VPS34 complex II (VPS34/VPS15/Beclin 1/UVRAG) (human, UniProt Q8NEB9 1-887; Q99570 1-1358; Q14457 1-450; Q9P2Y5 1-699); assay: vesicle flotation assay; GTP-loaded Rab coupled by its C-terminal Cys to PE-MCC in 100 nm LUVs; 1.8 mM LUVs and 2 μM VPS34 complex, 25 mM HEPES pH 8.0, 150 mM NaCl, 1 mM TCEP, 30 min on ice; sucrose gradient, fractions on SDS-PAGE
T1 construct: VPS34, human, subunit of complex II; VPS15, human, subunit of complex II; Beclin 1, human, subunit of complex II; UVRAG, human, subunit of complex II; Heterotetramer; Purified on IgG beads and released with TEV protease; also called endocytic complex II; source: Expi293F, transfected, purified (IgG beads, TEV protease elution, S200 gel filtration); copies: + + +
T1 sequence (Q8NEB9 whole entry, chain 1 of 4): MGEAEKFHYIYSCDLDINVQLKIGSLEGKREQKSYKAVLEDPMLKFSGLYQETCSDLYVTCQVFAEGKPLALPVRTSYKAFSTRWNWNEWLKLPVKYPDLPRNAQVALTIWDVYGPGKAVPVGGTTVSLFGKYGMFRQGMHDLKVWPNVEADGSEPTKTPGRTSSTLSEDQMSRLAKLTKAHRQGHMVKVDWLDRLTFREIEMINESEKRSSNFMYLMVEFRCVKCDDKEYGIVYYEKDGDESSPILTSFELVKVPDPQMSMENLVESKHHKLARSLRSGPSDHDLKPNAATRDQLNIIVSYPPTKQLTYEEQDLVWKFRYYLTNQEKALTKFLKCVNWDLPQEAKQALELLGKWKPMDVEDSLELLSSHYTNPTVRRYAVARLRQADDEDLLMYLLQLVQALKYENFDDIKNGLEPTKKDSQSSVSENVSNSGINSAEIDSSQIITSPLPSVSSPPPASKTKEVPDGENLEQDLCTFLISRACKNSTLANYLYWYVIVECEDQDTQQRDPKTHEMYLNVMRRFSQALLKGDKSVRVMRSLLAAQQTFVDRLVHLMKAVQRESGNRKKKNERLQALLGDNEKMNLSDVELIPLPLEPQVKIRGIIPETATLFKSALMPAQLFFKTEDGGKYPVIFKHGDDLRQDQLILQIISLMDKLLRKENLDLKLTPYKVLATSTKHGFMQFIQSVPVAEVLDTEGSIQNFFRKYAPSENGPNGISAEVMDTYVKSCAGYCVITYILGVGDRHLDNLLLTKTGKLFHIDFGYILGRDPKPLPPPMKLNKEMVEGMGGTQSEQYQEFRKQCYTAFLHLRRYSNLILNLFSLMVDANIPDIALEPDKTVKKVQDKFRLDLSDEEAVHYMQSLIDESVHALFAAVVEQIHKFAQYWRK
T1 sequence (Q99570 whole entry, chain 2 of 4): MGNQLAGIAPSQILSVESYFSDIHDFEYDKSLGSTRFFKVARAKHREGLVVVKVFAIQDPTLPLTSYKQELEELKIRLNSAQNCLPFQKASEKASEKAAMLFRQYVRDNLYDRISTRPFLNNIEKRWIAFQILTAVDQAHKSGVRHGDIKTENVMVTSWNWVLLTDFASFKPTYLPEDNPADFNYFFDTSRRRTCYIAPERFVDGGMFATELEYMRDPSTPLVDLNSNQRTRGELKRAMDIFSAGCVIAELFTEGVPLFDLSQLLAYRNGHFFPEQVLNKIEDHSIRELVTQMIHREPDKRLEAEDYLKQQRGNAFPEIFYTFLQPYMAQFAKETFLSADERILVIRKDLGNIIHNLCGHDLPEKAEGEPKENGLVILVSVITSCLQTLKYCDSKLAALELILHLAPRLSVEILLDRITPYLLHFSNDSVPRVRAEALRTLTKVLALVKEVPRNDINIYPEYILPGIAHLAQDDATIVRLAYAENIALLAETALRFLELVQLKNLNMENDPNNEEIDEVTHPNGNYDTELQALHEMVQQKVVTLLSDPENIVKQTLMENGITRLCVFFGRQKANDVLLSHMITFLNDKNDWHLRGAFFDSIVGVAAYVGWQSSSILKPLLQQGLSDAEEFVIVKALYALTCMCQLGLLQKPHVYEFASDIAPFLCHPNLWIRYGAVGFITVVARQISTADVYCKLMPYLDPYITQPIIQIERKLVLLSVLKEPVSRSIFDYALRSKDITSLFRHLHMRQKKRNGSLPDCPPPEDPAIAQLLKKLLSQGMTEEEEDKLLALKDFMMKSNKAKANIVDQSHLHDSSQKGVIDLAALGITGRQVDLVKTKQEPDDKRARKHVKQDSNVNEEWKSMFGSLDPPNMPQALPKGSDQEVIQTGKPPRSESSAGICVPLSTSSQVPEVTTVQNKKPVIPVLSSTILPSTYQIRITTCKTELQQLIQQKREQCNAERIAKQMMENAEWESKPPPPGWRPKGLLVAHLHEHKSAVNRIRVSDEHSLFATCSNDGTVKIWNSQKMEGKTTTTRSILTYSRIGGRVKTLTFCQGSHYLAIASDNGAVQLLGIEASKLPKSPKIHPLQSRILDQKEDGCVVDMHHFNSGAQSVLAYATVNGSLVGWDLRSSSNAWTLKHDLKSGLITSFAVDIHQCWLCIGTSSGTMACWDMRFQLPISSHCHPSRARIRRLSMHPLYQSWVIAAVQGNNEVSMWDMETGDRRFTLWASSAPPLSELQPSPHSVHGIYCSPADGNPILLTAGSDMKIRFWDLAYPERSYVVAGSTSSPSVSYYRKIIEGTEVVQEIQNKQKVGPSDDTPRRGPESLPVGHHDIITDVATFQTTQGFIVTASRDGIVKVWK
T1 sequence (Q14457 whole entry, chain 3 of 4): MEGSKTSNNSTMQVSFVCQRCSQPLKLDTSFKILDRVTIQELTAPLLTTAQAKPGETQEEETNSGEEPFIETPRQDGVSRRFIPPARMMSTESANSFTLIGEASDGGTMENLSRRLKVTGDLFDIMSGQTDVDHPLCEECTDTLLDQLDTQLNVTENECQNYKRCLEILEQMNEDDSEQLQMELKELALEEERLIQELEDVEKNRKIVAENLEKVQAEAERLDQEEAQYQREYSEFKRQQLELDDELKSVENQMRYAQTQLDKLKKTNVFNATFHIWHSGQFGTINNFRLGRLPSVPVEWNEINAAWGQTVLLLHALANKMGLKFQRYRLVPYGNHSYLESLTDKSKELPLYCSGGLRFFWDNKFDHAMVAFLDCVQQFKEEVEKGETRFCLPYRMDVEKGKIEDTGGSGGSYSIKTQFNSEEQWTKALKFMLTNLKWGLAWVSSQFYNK
T1 sequence (Q9P2Y5 whole entry, chain 4 of 4): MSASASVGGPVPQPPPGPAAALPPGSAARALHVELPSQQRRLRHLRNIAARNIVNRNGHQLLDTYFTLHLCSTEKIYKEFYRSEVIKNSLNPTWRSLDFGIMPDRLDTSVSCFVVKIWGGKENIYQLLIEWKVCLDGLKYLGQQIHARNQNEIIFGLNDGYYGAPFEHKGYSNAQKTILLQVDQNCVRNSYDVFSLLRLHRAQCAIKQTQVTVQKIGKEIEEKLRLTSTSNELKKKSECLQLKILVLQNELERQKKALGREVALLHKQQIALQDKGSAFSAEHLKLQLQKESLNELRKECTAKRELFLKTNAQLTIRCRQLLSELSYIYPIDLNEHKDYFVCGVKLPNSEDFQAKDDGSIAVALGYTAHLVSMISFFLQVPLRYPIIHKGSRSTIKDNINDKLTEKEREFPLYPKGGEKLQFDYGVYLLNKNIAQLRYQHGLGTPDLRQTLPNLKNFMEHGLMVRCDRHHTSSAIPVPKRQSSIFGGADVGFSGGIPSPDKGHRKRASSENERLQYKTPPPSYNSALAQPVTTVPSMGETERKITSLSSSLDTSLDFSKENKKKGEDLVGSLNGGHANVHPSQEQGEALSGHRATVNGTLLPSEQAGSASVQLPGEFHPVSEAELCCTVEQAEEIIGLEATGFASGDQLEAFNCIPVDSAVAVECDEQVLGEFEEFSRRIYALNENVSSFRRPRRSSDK

[2] = molecular target: T2, human VPS34 complex I (VPS34/VPS15/Beclin 1/ATG14L) (human, UniProt Q8NEB9 1-887; Q99570 1-1358; Q14457 1-450; Q6ZNE5 1-492); assay: as above
T2 construct: VPS34, human, subunit of complex I; VPS15, human, subunit of complex I; Beclin 1, human, subunit of complex I; ATG14L, human, subunit of complex I; Heterotetramer; Purified on IgG beads and released with TEV protease; also called autophagy-specific complex I; source: Expi293F, transfected, purified (IgG beads, TEV protease elution, S200 gel filtration); copies: + + +
T2 sequence (Q8NEB9 whole entry, chain 1 of 4): as the sequence (Q8NEB9 whole entry, chain 1 of 4) above
T2 sequence (Q99570 whole entry, chain 2 of 4): as the sequence (Q99570 whole entry, chain 2 of 4) above
T2 sequence (Q14457 whole entry, chain 3 of 4): as the sequence (Q14457 whole entry, chain 3 of 4) above
T2 sequence (Q6ZNE5 whole entry, chain 4 of 4): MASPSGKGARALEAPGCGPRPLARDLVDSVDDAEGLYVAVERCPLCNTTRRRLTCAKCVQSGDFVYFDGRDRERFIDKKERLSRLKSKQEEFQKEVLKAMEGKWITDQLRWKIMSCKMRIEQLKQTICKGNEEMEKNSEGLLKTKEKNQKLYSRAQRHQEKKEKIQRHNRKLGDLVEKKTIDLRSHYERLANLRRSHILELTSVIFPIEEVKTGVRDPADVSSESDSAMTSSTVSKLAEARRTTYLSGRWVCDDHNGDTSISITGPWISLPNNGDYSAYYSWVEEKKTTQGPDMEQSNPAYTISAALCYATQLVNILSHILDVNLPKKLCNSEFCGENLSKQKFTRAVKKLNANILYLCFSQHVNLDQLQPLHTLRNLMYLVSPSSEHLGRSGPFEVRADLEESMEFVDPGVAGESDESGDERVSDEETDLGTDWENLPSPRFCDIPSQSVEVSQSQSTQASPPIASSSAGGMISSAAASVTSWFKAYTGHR

[3] = molecular target: T3, VPS15 (subunit of complex II–BATS in the cryo-ET structure) (human, UniProt Q99570 1-1358); assay: cryo-EM structure; cryo-ET and subtomogram averaging, 9.8 Å; 16 μM complex II–BATS on LUVs decorated with Rab5a–GTP
T3 construct: VPS15, human; source: Expi293F, transfected, purified within complex II–BATS
T3 sequence (Q99570 whole entry, one chain of several): as the sequence (Q99570 whole entry, chain 2 of 4) above

[4] = molecular target: T4, VPS34 (subunit of complex II–BATS in the cryo-ET structure) (human, UniProt Q8NEB9 1-887); assay: as above
T4 construct: VPS34, human; source: Expi293F, transfected, purified within complex II–BATS
T4 sequence (Q8NEB9 whole entry, one chain of several): as the sequence (Q8NEB9 whole entry, chain 1 of 4) above

human VPS34 alone = molecular target: T5, human VPS34 alone (human, UniProt Q8NEB9 1-887); assay: cross-linking; proximity-triggered cross-linking by the unnatural amino acid BrCO6K at Rab5a residue 84; 50–100 molar excess of Rab5a over complex II, 100–200 molar excess over VPS34; overnight at 4 °C; SDS-PAGE and mass spectrometry of the bands
T5 construct: VPS34, human; printed mass 102 kDa; source: E. coli C41 (DE3), purified (Ni-NTA, heparin, gel filtration)
T5 sequence (Q8NEB9 whole entry): as the sequence (Q8NEB9 whole entry, chain 1 of 4) above

[5] = molecular target: T1, human VPS34 complex II …; assay: as above
[6] = molecular target: T1, human VPS34 complex II …; assay: HDX-MS; complex II (5 μM) alone or with 30 μM Rab5a-Q79L-GTP; 25 mM HEPES pH 8.0, 50 mM NaCl, 1 mM TCEP, room temperature; 3/30/300/3000 s

B1: Rab5a(1–212)-Q79L-C19S-C63S (natural protein, human, UniProt P20339 1-212, looked up)
chain: MASRGATRPNGPNTGNKISQFKLVLLGESAVGKSSLVLRFVKGQFHEFQESTIGAAFLTQTVSLDDTTVKFEIWDTAGLERYHSLAPMYYRGAQAAIVVYDITNEESFARAKNWVKELQRQASPNIVIALSGNKADLANKRAVDFQEAQSYADDNSLLFMETSAKTSMNVNEIFMAIAKKLPKNEPQNPGANSARGRGVDLTEPTQPTRNQC
modifications: C-terminal cysteine coupled covalently to a maleimide-conjugated lipid (PE-MCC) in the membrane
notes: Rab5a, human, residues 1–212; Loaded with GTP or GDP before coupling to GUVs or LUVs; also called Rab5a (Q79L); membrane-anchored Rab5a–GTP; source: E. coli C41(DE3)RIPL, purified (Ni-NTA, SUMO protease, size-exclusion chromatography); not shown: His-SUMO, N-terminal, cleaved
- binding result [1]: binds
- binding result [2]: binds
- binding result [3]: binds
- binding result [4]: binds

B3: Rab1a(1–204)-Q70L-C26S-C126S (natural protein)
chain: not shown
modifications: C-terminal cysteine coupled covalently to a maleimide-conjugated lipid (PE-MCC) in the membrane
notes: Loaded with GTP or GDP before coupling to GUVs or LUVs; also called Rab1a–GTP; Rab1a–GDP; source: E. coli C41(DE3)RIPL, purified (Glutathione Sepharose, TEV protease, HiTrap Q, heparin, size-exclusion chromatography); not shown: GST, N-terminal, cleaved
- binding result [2]: binds

The next lines start with the values.

- binding result (human VPS34 alone): binds
- binding result [5]: binds
B2: Rab5a S84BrCO6K (Rab5a_Q79L_1-212_C19S_C63S_S84TAG-His6) (natural protein, human, UniProt P20339 1-212, looked up)
chain: B1 chain with S84K
modifications: BrCO6K (bromoalkyl-bearing lysine derivative, unnatural amino acid) at 84
notes: Rab5a, human, residues 1-212, amber codon at S84 read as BrCO6K; Loaded with GTP; Residue 84 is the lysine derivative BrCO6K, written as K; also called Rab5a–GTP–BrCO6K; Rab5a-84BrCO6K; source: E. coli DH10B, purified (Ni-NTA, size-exclusion chromatography)

- binding result [6]: binds
B4: Rab5a(1-211)-Q79L (natural protein, human, UniProt P20339 1-211, looked up)
chain: MASRGATRPNGPNTGNKICQFKLVLLGESAVGKSSLVLRFVKGQFHEFQESTIGAAFLTQTVCLDDTTVKFEIWDTAGLERYHSLAPMYYRGAQAAIVVYDITNEESFARAKNWVKELQRQASPNIVIALSGNKADLANKRAVDFQEAQSYADDNSLLFMETSAKTSMNVNEIFMAIAKKLPKNEPQNPGANSARGRGVDLTEPTQPTRNQ
notes: Rab5a, human, last 4 residues (CCSN) deleted, residues 1-211; Loaded with GTP; used soluble for HDX-MS; also called Rab5a-Q79L-GTP; Rab5a (Q79L) loaded with GTP; source: E. coli C41(DE3)RIPL, purified (as Rab5a(1–212)); not shown: His-SUMO, N-terminal, cleaved

Source: publication PMC7946940 (Nature Communications, 2021)
